The values below come from paper PMC9285634.

By stoichiometry N is commonly meant the number of molecules, sites or subunits per partner or assembly.

For this test, the target named is Pyruvate kinase M2 (PKM2), endogenous (human (endogenous in HeLa and HCT116)) (UniProt P14618). In words: cross-linking; cell or tumor tissue lysate in PBS with 0.1% Triton X-100; 4 ug protein crosslinked with 0.025% glutaraldehyde for 2 min at 37 C, stopped with Tris-HCl pH 8.0 50 mM; SDS-PAGE and WB with anti-PKM2; cells with HITT overexpression or KD, HITT fragments, miR-106, FBP; HCT116 xenografts.

Pyruvate kinase M2 (PKM2), endogenous, P14618 1-531 (enzyme; other documents disagree on this pair), sequence (P14618 whole entry): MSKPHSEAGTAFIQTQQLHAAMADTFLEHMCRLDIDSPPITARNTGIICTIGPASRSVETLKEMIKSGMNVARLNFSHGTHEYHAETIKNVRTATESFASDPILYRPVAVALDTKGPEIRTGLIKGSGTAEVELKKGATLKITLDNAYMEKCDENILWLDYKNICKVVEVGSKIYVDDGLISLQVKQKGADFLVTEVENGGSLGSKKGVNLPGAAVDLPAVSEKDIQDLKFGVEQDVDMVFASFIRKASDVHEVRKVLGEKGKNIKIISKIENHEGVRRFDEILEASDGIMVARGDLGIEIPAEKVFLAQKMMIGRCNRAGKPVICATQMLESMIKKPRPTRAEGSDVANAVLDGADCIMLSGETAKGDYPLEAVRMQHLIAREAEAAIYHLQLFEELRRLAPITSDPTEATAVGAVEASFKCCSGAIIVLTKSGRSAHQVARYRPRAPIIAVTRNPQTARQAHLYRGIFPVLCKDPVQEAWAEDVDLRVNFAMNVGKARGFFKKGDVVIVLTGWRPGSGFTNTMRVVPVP

“Pyruvate kinase M2 (PKM2), endogenous, P14618 1-531 (enzyme; other documents disagree on this pair)” yielded a stoichiometry N of 2.
